According to US20150056162A1:

Key:
[1] = target: IL-13Rα1 ectodomain (amino acids 1-310), biotinylated (human) (UniProt P78552); test: SPR; equilibrium; conditions: ligand
[2] = target: IL-13Rα1 ectodomain (amino acids 1-310), biotinylated (human) (UniProt P78552); test: SPR; kinetic; conditions: ligand

Chain of IL-13Rα1 ectodomain (amino acids 1-310), biotinylated (human) (P78552 other isoform, or with tags, fused parts or gaps): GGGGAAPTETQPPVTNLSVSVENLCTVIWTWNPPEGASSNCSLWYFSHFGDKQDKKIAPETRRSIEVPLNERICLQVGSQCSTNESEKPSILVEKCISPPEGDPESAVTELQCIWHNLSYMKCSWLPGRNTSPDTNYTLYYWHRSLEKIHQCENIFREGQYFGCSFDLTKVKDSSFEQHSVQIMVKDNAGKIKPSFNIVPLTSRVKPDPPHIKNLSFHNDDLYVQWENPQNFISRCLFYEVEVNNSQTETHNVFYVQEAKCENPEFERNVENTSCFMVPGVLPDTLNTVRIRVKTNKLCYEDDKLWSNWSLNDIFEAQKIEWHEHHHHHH

Kd [1] [nM] | Kd [2] [nM] | Substance
36000 | – | IL-13 variant C4 (from UniProt P35225 34-146)
1600 | – | IL-13 variant C11 (from UniProt P35225 34-146)
– | 4.38 | wild-type human IL-13 (from UniProt P35225 34-146)
